Patent KR20210010236A (dated 2021)

Assays:
[1] = target: T1, Full-length(FL)-WRS, human tryptophanyl-tRNA synthetase (NP_004175.2) (human, UniProt P23381 2-471); test: western blot on HeLa and HCT116 cell lysates, purified scFv detected with anti-HA-HRP
T1 construct: In the western blot and immunoprecipitation the target was endogenous WRS in lysates of human cells (HeLa, HCT116, HEK293F); also called Human WRS; TrpRS
T1 sequence: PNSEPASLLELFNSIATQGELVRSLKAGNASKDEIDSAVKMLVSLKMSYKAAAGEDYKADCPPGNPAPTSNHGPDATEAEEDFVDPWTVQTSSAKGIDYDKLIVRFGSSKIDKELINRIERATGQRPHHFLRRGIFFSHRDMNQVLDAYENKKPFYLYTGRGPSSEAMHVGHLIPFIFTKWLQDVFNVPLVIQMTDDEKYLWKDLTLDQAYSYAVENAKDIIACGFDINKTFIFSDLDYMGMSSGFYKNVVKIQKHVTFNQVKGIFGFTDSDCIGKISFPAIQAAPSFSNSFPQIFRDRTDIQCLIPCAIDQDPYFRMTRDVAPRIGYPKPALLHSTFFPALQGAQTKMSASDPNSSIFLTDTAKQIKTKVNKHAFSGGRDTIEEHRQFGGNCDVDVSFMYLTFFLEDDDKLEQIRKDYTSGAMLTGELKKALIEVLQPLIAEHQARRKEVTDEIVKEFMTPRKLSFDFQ

[2] = target: T1, Full-length(FL)-WRS, human …; test: cell-based or functional assay
[3] = target: T1, Full-length(FL)-WRS, human …; test: SPR (Biacore 2000), FL-WRS immobilised on a CM5 chip, antibody 6.25-100 nM as analyte

B1: 3C6 scFv (scFv)
scFv: EVQLLESGGGLVQPGGSLRLSCAASGFTFSSYDMSWVRQAPGKGLEWVSAISSGGSSIYYADSVKGRFTISRDNSKNTLYLQMNSLRAEDTAVYYCARDVAWDMLGDFDYWGQGTLVTVSSGGGGSGGGGSGGGGSQSVLTQPPSASGTPGQRVTISCTGSSSNIGSNYVYWYQQLPGTAPKLLIYANSHRPSGVPDRFSGSKSGTSASLAISGLRSEDEADYYCGAWDDSLSAYVFGGGTKLTV
notes: The scFv comes from an HA-tagged human scFv phage library; It was expressed in the E. coli periplasm, purified on Ni-NTA and detected with anti-HA-HRP; also called 3C6 scFv clone
binding result [1]: binds

B2: 3C6 IgG 단일클론 항체 (anti-WRS(3C6) IgG) (antibody, V domains shown)
VH: EVQLLESGGGLVQPGGSLRLSCAASGFTFSSYDMSWVRQAPGKGLEWVSAISSGGSSIYYADSVKGRFTISRDNSKNTLYLQMNSLRAEDTAVYYCARDVAWDMLGDFDYWGQGTLVTVSS
VL: QSVLTQPPSASGTPGQRVTISCTGSSSNIGSNYVYWYQQLPGTAPKLLIYANSHRPSGVPDRFSGSKSGTSASLAISGLRSEDEADYYCGAWDDSLSAYVFGGGTKLTV
notes: The variable regions of the 3C6 scFv were converted to IgG (pcDNA3.4 vectors, expressed in HEK293F, purified on protein A); also called 3C6 IgG 항체; WRS(3C6) 항체
EC 50 (inhibition of human WRS-induced TNF-α secretion by differentiated THP-1 macrophages) [2]: 0.035 nM | Kd [3]: 17.2 nM | koff [3]: 0.0011 s⁻¹ | kon [3]: 64100 M⁻¹ s⁻¹
